Results taken from patent publication US20100168026A1, “INSULIN SECRETION INDUCER, AND ACCELERATOR FOR INCREASING THE NUMBER OF PANCREATIC BETA-CELLS” (priority 2007, published 2010).

Experiments:
pancreatic β-cells [1] = test: Surface ratio of β-cells to α-cells in STZ mice administered synthetic polypeptides A-C; format: in vivo, C57BL/6 mouse; settings: STZ mouse, 25 nmol/kg body weight i.p. twice daily for eight weeks; vs saline; FIG. 8
Method: In the sixth embodiment, the action of synthetic polypeptides A-C on Type-1 diabetes STZ model mice was confirmed in the same manner as the third embodiment.
Firstly a 7-week old C57BL/6 mouse (body weight approximately 18-20 g) was fasted for 18 hours from day 0 and then streptozocin dissolved in saline (100 mg/kg body weight) was administered into the interperitoneal region and free feeding was immediately allowed. […] The serum blood-glucose level was measured on the seventh day. A fasting blood glucose level of greater than or equal to 150 mg/dL was determined as diabetes and the experiment described hereafter was conducted. STZ mice determined to have diabetes were administered into the interperitoneal region twice daily the polypeptide A-C (25 nmol/kg body weight) dissolved in saline for eight weeks from the seventh day.
The pancreas of the STZ mice was removed and after fixing the tissue with paraformaldehyde, the tissue sample preparation office at University of Tsukuba was employed to prepare a paraffin-embedded section. […] The section was thereafter mounted on a fluorescence photobleaching prevention agent (VECTASHILD Mounting Medium; Vector) and observed through a fluorescence microscope (BZ-8000; KEYENCE) to measure the surface ratio (β-cells/α-cells) of β-cells to α-cells. […]

MIN6 cells = test: Glucose-stimulated insulin secretion (GSIS) in MIN6 cells stimulated with culture supernatant of CF266-transfected HEK293T cells; format: cell-based, murine; settings: culture supernatant of transfected HEK293T cells : KRBH buffer 1:1 (v/v), stimulated one hour, vs Mock, FIG. 2
Method: In Embodiment 1, an action was confirmed with respect to MIN6 cells using a culture supernatant of a HEK293T cell strain originating from fetal kidney epithelial cells transfected with CF266.
Firstly, HEK293T cells subcultured in DMEM media enriched with 5% FCS and an antibiotic (penicillin 100 U/mL, streptomycin […]) were plated onto a 10 cm dish at a concentration of 1×10^6 cells/dish. On the following day, HEK292T cells were transfected with an expression vector for mCF266 (pCAGGS-mCF266) using a FuGENE6 (Roche) and mCF266 was forcibly expressed. After 24 hours, the media was exchanged for Opti-MEM media and after a further 24 hours, a culture supernatant was recovered.
Next, MIN6 cells subcultured in DMEM media (high glucose, Invitrogen) enriched with 15% FCS, an antibiotic (penicillin 100 U/mL, streptomycin […]) and 2-mercaptoethanol were plated onto a 24-well plate at a concentration of 3×10^5 cells/well. On the following day, 0.5 mL/well KRBH buffer solution (2.8 mM glucose) was added and pre-culturing was conducted for 30 minutes. Then 0.5 mL/well of a mixed solution of the above culture supernatant and KRBH buffer solution (1:1(v/v)) was added and stimulated for one hour. Then glucose-stimulated insulin secretion (GSIS) was measured for the MIN6 cells. […]

[2] = tested on: type-1 diabetes STZ model mouse; test: Oral glucose tolerance test after adenoviral expression of hCF266(27V) in STZ model mouse; format: in vivo, C57BL/6 mouse; settings: adenovirus i.v. 1×10^9 PFU/mL on day 7, OGTT on twelfth day, vs Ad GFP or Ad (−), FIG. 5
Method: In the fourth embodiment, an adenoviral vector expressing hCF266(27V) was used to confirm the action of hCF266(27V) with respect to an STZ model mouse which is a type-1 diabetes model mouse.
Firstly a 7-week old C57BL/6 mouse (body weight approximately 18-20 g) was fasted for 18 hours from day 0 and then streptozocin dissolved in saline (100 mg/kg body weight) was administered into the interperitoneal region and free feeding was immediately allowed. From the following day, after fasted for 18 hours the same amount of streptozocin was re-administered on the second day into the interperitoneal region and free feeding was immediately allowed. The serum blood-glucose level was measured on the seventh day. A fasting blood glucose level of greater than or equal to 150 mg/dL was determined to be diabetes and the experiment described hereafter was conducted. On the same day, a recombinant adenovirus (prepared using ViraPower which is a tradename of Invitrogen) constructed by linking hCF266(27V) to a CAG promoter was intravenously injected at a concentration of 1×10^9 PFU/mL into the caudal vein of a STZ mouse determined to be suffering diabetes. On the twelfth day, an oral glucose tolerance test (OGTT) was performed by periodically taking blood and measuring the blood-glucose level of the serum and the insulin level. […]

pancreatic β-cells [3] = test: Surface ratio of β-cells to α-cells in pancreas sections of STZ mice given hCF266(27V) adenovirus; format: in vivo, C57BL/6 mouse; settings: STZ mouse, adenoviral expression; vs Ad GFP or Ad (−); FIG. 6
Method: Firstly a 7-week old C57BL/6 mouse (body weight approximately 18-20 g) was fasted for 18 hours from day 0 and then streptozocin dissolved in saline (100 mg/kg body weight) was administered into the interperitoneal region and free feeding was immediately allowed. From the following day, after fasted for 18 hours the same amount of streptozocin was re-administered on the second day into the interperitoneal region and free feeding was immediately allowed. The serum blood-glucose level was measured on the seventh day. A fasting blood glucose level of greater than or equal to 150 mg/dL was determined to be diabetes and the experiment described hereafter was conducted. On the same day, a recombinant adenovirus (prepared using ViraPower which is a tradename of Invitrogen) constructed by linking hCF266(27V) to a CAG promoter was intravenously injected at a concentration of 1×10^9 PFU/mL into the caudal vein of a STZ mouse determined to be suffering diabetes. On the twelfth day, an oral glucose tolerance test (OGTT) was performed by periodically taking blood and measuring the blood-glucose level of the serum and the insulin level.
The pancreas of the STZ mice was removed and after fixing the tissue with paraformaldehyde, the tissue sample preparation office at University of Tsukuba was employed to prepare a paraffin-embedded section. […]

[4] = tested on: type-2 diabetes model KK/Ay mouse; test: Intravenous glucose tolerance test after adenoviral expression of mCF266 in KK/Ay mouse; format: in vivo; settings: adenoviral vector i.v. 6×10^9 PFU/mL, after four days, vs Ad GFP
Source text: In the second embodiment, an adenoviral vector expressing mCF266 was used to confirm the action of mCF266 with respect to a KK/Ay mouse which is a type-2 diabetes model mouse.
Firstly an adenoviral vector (prepared using ViraPower which is a tradename of Invitrogen) constructed by linking mCF266 to a CAG promoter was intravenously injected at a concentration of 6×10^9 PFU/mL into the caudal vein of a 18-week old KK/Ay mouse (body weight approximately 47-51 g) given a high-fat high-sucrose diet. After four days, an intravenous glucose tolerance test (i.v. GTT) was performed by periodically taking blood and measuring the blood-glucose level of the serum and the insulin level.
Consequently expression of mCF266 is shown to induce insulin secretion.

pancreatic β-cells [5] = test: Surface area and number of β-cells (islets of Langerhans) in mCF266 transgenic mice; format: in vivo, mouse
Method: Firstly, an mCF266 expression vector (pCAGGS-mCF266) was constructed by linking mCF266 to a CAG promoter and linearized. The University of Tsukuba Laboratory Animal Resource Center was employed to produce a transgenic mouse. The introduced gene was confirmed using PCR and southern blotting and mating for five generations with C57BL/6 mice was conducted.
The pancreas of the transgenic mice was removed and after fixing the tissue with paraformaldehyde, the tissue sample preparation office at University of Tsukuba was employed to prepare a paraffin-embedded section. After the section was removed from paraffin, antigen activation was performed for 30 minutes at room temperature using 0.1% Triton X-100 and then blocking was performed for one hour at room temperature using 5% skim milk. After blocking, a primary antibody reaction was performed overnight at 4° C. using polyclonal anti-insulin guinea pig antibody (Daco) and polyclonal anti-glucagon rabbit antibody (Daco). The section was washed using Tris-buffered saline containing 0.1% Tween20 (TBST). […] The section was thereafter mounted on a fluorescence photobleaching prevention agent (VECTASHILD Mounting Medium; Vector) and observed through a fluorescence microscope (BZ-8000; KEYENCE) to measure the surface area of islets of Langerhans stained by insulin relative to the pancreas surface area on the section. […]

ALYCMLISIQALLKGPLMC (Human) [polypeptide A, 19 amino acid fragment, 98-116th amino acids of the hCF266(27V) polypeptide]
surface ratio (β-cells/α-cells) β-cells to α-cells (pancreatic β-cells [1]): excellent

B1: hCF266(27V): Human DNA SEQ. ID. No. 4 encoding TM4SF20, 27th amino acid valine; tested as transfected-cell supernatant and adenoviral vector (protein)
chain: MTCCEGWTSCNGFSLLVLLLLGVVLNVIPLIVSLVEEDQFSQNPISCFEWWFPGIIGAGLMAIPATTMSLTARKRACCNNRTGMFLSSLFSVITVIGALYCMLISIQALLKGPLMCNSPSNSNANCEFSLKNISDIHPESFNLQWFFNDSCAPPTGFNKPTSNDTMASGWRASSFHFDSEENKHRLIHFSVFLGLLLVGILEVLFGLSQIVIGFLGCLCGVSKRRSQIV
modifications: Human
notes: ID; No. 4 encoding TM4SF20, 27th amino acid valine; tested as transfected-cell supernatant and adenoviral vector
glucose-stimulated insulin secretion (GSIS) (MIN6 cells): excellent action | blood glucose level (OGTT) [2]: significantly reduced | surface ratio (β-cells/α-cells) of β cells to α cells (pancreatic β-cells [3]): significantly increased

B2: mCF266: Murine DNA SEQ. ID. No. 1 encoding membrane protein Tm4sf20; tested as transfected-cell supernatant, adenoviral vector and transgene (protein)
chain: MTCCEGWTSCNGFSLLILILLGVVINCIPLGISLVEADSTSQNPISCYEWWFPGIIGAGLMAIPATTMSLAARKRACCNNKTGMFLSSLFSVITVVGAVYCMLVSLQALLEGPLICNTQANSTVTCEFSLKNLSKFDPESFNLLWFFNGTCVSPTDFKNPTINNMVSNWKIPNSNSEEDRHRIFHFSVFMSLLLVGILELLFGLSQILIGFLGCLCGVSQRRSQIV
modifications: Mouse
notes: ID; No. 1 encoding membrane protein Tm4sf20; tested as transfected-cell supernatant, adenoviral vector and transgene
blood-glucose level (i.v. GTT) ([4]; FIG. 3A): only a slightly low tendency | insulin value (i.v. GTT) ([4]; FIG. 3B): significantly higher | number of β-cells (pancreatic β-cells [5]; transgenic mice hetero (+/−) or homo (+/+) vs wild-type (normalized to 1), FIG. 7B): conspicuously increased | surface area of β-cells (pancreatic β-cells [5]; transgenic mice hetero (+/−) or homo (+/+) vs wild-type, FIG. 7A): conspicuously increased
